Measurements from publication PMC12474313.

Biological target: rRABV-G-XVIII (rabies virus glycoprotein ectodomain fused to the human collagen XVIII trimerization domain) (rabies virus strain CVS-11 | human)
Assay: SEC

rRABV-G-XVIII (rabies virus glycoprotein ectodomain fused to the human collagen XVIII trimerization domain)
percent trimeric protein: 96.3% | stoichiometry N: 3
